Laboratory results from patent US8647868B2, “Compositions and methods for increasing production of recombinant gamma-carboxylated proteins” (Wake Forest University Health Sciences, priority 2005, dated 2014).

B1: reduced RNAse: bovine ribonuclease B reduced with DTT; used to trigger VKOR activity (protein, UniProt P61823 27-150, looked up)
Ribonuclease pancreatic: KETAAAKFERQHMDSSTSAASSSNYCNQMMKSRNLTKDRCKPVNTFVHESLADVQAVCSQKNVACKNGQTNCYQSYSTMSITDCRETGSSKYPNCAYKTTQANKHIIVACEGNPYVPVHFDASV
modifications: reduced with DTT

Tests used:
blood clotting activity = experiment: Blood clotting activity (APTT) of purified r-hFIX; assay type: biochemical, human; details: purified from medium of 200 nM siRNA SMART pool treated (r-hFIX+VKORC1) BHK cells
Protocol: Warfarin sensitive VKOR activity was measured as described (19) by estimating the percent conversion of vitamin K1 2,3-epoxide (Vit.K>O) to vitamin K1. The vitamin and the epoxide were separated on a reversed phase C18 column in 100% methanol and quantified against external standards. VKOR activity was either triggered with 5 mM DTT or 0.32 mM reduced RNAse. Reduced bovine RNAse was prepared according to a modified method originally described by Rupp et al. (20). One hundred mg RNAse was dissolved in 500 μl of 0.2 M Tris-Acetate, 6 M guanidinium hydrochloride, pH 8.0. Seventy-two mg DTT was added and the solution was left at 37° C. for one hour. Then the pH was adjusted to 4.0 with acetic acid and DTT, Tris and guanidinium hydrochloride removed by gel filtration on a column of Sephadex G-25 equilibrated in 0.1 M acetic acid. Prior to chromatography, the column resin and the 0.1 M acetic acid were saturated with N2. The void volume fraction containing reduced RNAse was distributed into sealed 0.75 ml serum flasks filled with N2 which were stored at 4° C. until use. […] Blood clotting activities of purified r-hFIX and plasma hFIX were determined with the Activated Partial Thromboplastin Time (APPT) kit APTT-SP (liquid)-0020006300 from Instrumentation Laboratory, Lexington, Mass. […]

γ-carboxylase = experiment: FLEEL γ-carboxylation in extracted rat liver microsomes triggered by reduced RNAse; assay type: biochemical; details: 40 μM vitamin K1 2,3-epoxide, no DTT
Protocol: Rat liver microsomes extracted of luminal and peripherally bound membrane proteins (see Experimental Procedures) were tested for FLEEL γ-carboxylation when the reaction was triggered by reduced RNAse (black bar) and reduced vitamin K1H2 (shaded bar). When reduced RNAse was used, the test system contained 40 μM vitamin K1 2,3-epoxide as the source of the γ-carboxylase cofactor. No DTT was present in the assays. Each bar represents the average activity of three parallel incubations. Standard deviation is shown on each bar.
For removal of microsomal luminal and peripherally bound membrane proteins, microsomes obtained from 4 g of rat liver were suspended in 8 ml of 100 mM Na2CO3, 1.2 M KCl, 0.025% deoxycholate, pH 11.5 with a Potter Elvehjelm glass homogenizer and centrifuged at 100,000×g for 45 min (14). […]
Warfarin sensitive VKOR activity was measured as described (19) by estimating the percent conversion of vitamin K1 2,3-epoxide (Vit.K>O) to vitamin K1. The vitamin and the epoxide were separated on a reversed phase C18 column in 100% methanol and quantified against external standards. […] Blood clotting activities of purified r-hFIX and plasma hFIX were determined with the Activated Partial Thromboplastin Time (APPT) kit APTT-SP (liquid)-0020006300 from Instrumentation Laboratory, Lexington, Mass. […]

| Molecule | specific activity of functional r-hFIX (blood clotting activity) [units/mg] | FLEEL γ-carboxylation triggered by reduced RNAse (γ-carboxylase) |
| --- | --- | --- |
| r-hFIX: functional recombinant human factor IX purified from medium of engineered BHK cells | 147 |  |
| B1 |  | to the same extent as chemically reduced vitamin K1H2 |
